# In patent US12673985B2, “Method for the treatment or prophylaxis of cancer by targeting the extracellular portion of keratin 14 (KRT14) residing on cancer cells” (Hudson Institute of Medical Research, priority 2019, dated 2026):
# “Also recorded” adds a separate entry of the source.
# Assays:
# [1] = Tissue distribution and clearance by fluorescence in mice without tumours; type: in vivo
# Excerpt: Control mice received vehicle (PBS) alone.
# [2] = tested on: 9,184 individual recombinant human proteins; assay: ProtoArray Human Protein Microarrays v5.0 cross-reactivity profiling; type: binding; conditions: mAb diluted 1:500
# Description: Proteomic profiling of mAb AN-17 antibody reactivity was performed using Invitrogen™ ProtoArray™ Human Protein Microarrays v5.0 (ThermoFisher Scientific, Waltham MA), comprising 9,184 individual recombinant human proteins spotted in duplicate. All procedures were carried out as previously described (PMID: 29141850; Wilson et al. Cancer Epidemiol Biomarkers Prev. 2018; 27(2):183-192). Arrays were probed using mAb AN-17 diluted 1:500 in wash buffer. Fluorescent detection antibody against IgG heavy and light chains was from Abcam (#ab150119 Goat Anti-Mouse IgG H&L Alexa Fluor® 647, preadsorbed) diluted to […] in wash buffer prior to use. A single array incubated with detection antibody alone was used as a control for non-specific antibody binding.
# Array imaging was performed using a Fuji FLA5100 multi wavelength scanner as described (PMID: 29141850; Wilson et al. Cancer Epidemiol Biomarkers Prev. 2018; 27(2):183-192), using a 635 nm excitation laser and dual band pass Cy3/Cy5 filter. Images were acquired at […], with PMT set at 1000V. Array alignment, feature extraction and data normalization were performed as previously described (PMID: 29141850; Wilson et al. Cancer Epidemiol Biomarkers Prev. 2018; 27(2):183-192). Array co-ordinates were obtained from the manufacturer-provided downloadable .GAL files (ThermoFisher Scientific).
# [3] = tested on: BT16 atypical teratoid rhabdoid (brain) carcinoma; assay: In vitro wound repair assay; type: cell-based; conditions: mAb 1 μg/ml; 16 hrs
# Description: (§1) In vitro wound repair assay. Ovarian cancer cells (or other cancer cell lines—BT16, NCI-H1573, AN3CA, SW620 and MDA-MB-468) were grown in complete medium to confluency in a 12-well plate, then serum-starved overnight to synchronize at G0. The following day cell culture medium was removed, and cell monolayers were wounded by scraping with a pipette tip attached to suction. Non-adherent cells were removed by gentle washes with PBS, and complete growth medium with or without mAb AN-17 (1 μg/ml) or commercial KRT14 polyclonal antibody (1 μg/ml) was replaced. The wound area was imaged under a phase microscope (Leica) at regular intervals ranging from 0-72 h. Wound closure was measured in image series using AnalySIS LS Research Software (Olympus) to determine the area of the wound on each day. Experiments were repeated in triplicate with at least six wound areas observed per growth condition.
# (§2) In vitro wound repair assays were conducted on the following cancer cell lines: BT16 atypical teratoid rhabdoid (brain) carcinoma, NCI-H1573 lung adenocarcinoma, SJ-GBM2 primary glioblastoma multiforme, AN3CA endometrial carcinoma, SW620 colorectal carcinoma and MDA-MB-468 breast carcinoma. Cells were grown in complete medium to confluency in a 12-well plate, and subsequently serum-starved overnight to synchronize at G0. The following day, cell culture medium was removed and the cell monolayers were wounded by scraping with a pipette tip attached to suction. Non-adherent cells were removed by gentle washes with phosphate buffered saline (PBS) and complete growth medium was added to each well, in either the absence or presence of mAb AN-17 (at 1 μg/ml). The wound area was imaged every hour for 0-24 hours. Wound closure was measured in image series using AnalySIS LS Research Software (Olympus) to determine the area of the wound on each day. Experiments were repeated in triplicate with at least six wound areas observed per growth condition.
# [4] = tested on: NCI-H1573 lung adenocarcinoma; assay: In vitro wound repair assay; type: cell-based; conditions: mAb 1 μg/ml; 16 hrs
# Description: as §1, §2
# [5] = tested on: MDA-MB-468 breast carcinoma; assay: In vitro wound repair assay; type: cell-based; conditions: mAb 1 μg/ml; 16 hrs
# Description: as §1, §2
# [6] = tested on: OVCAR4 ovarian cancer cells; assay: Real time cell analysis (RTCA) of proliferation with cisplatin and mAb AN-17; type: cell-based, human
# Description: Real time cell analysis (RTCA) was conducted as previously described (PMID: 31443478; Bilandzic et al., Cancers (Basel). 2019; 11(9), E1228) using an xCELLigence RTCA SP 96-well instrument (ACEA Biosciences). Cell lines were synchronized in G0 by overnight incubation in serum-free media and were seeded at 0.5×10^3 cells/0.15 ml/per well. […] Impedance readings were taken every 15 minutes for the experimental duration. mAb AN-17 comprises the heavy chain variable region of SEQ ID NO:3 and the light chain variable region of SEQ ID NO:5, encoded by the nucleic acid sequences of SEQ ID NOs:2 and 4, respectively (see also FIGS. 21 and 22A-22B).
# KRT14+ cells = assay: Flow cytometry for KRT14+ cell populations in ovarian cancer cells; type: cell-based, human and murine; conditions: mAb AN-17 1:200
# Description: Flow cytometry was carried out according to standard protocols (PMID: 30602661), with data acquired using a BD LSRFortessa X-20 (BD Biosciences) and analysed using FlowJo software v10.5.0 (BD Biosciences). Samples assessed for KRT14+ cell populations included OVCAR3, CAOV4, ID8 mouse ovarian cancer cells, ascites-derived ovarian cancer cells derived from a clinical specimen (designated #3.1937-07) and cardiac blood from a mice bearing 12-week old epithelial ovarian tumours. For cell lines, 1×10^6 cells per cell line were incubated with either mAb AN-17 (1:200 dilution) or a commercially available anti-KRT14 polyclonal antibody (Sigma SAB4501657; 1:50 dilution) as a positive control for 45 mins in non-immune serum at room temperature. The secondary antibodies, goat anti-mouse Alexa647 (mAb AN-17) or goat anti-rabbit IgG Alexa 488 (commercial Ab), were diluted 1:500 and incubated for 30 minutes. For blood samples, 2×10^6 cells were incubated with an Alexa Fluor®488-conjugated mAb AN-17 antibody for 45 minutes. Following PBS washes, cells were resuspended in PBS/2% FBS data was acquired using a BD LSRFortessa X-20 (BD Biosciences) flow cytometer.
molecule,measurement,setting,value
"mAb AN-17: monoclonal anti-KRT14 antibody; heavy chain variable region SEQ ID NO:3, light chain variable region SEQ ID NO:5 (clone AN-17A RG4.E5b.A7.B4) (antibody, listed as Mus musculus, V domains shown) VH: QVQLKESGPGLVAPSQSLSITCTVSGFSLSRYSVHWVRQPPGKGLEWLGMIWGGGSTDYNSALKSRLSISKDNSKSQVFLKMNSLQTDDTAMYYCARKDYGYSYFDYWGQGTTLTVSS VL: DVLMTQTPLSLPVSLGDQASISCRSSQSIVHSNGNTYLEWYLQKPGQSPKLLIYKVSNRFSGVPDRFSGSGSGTDFTLKISRVEAEDLGVYYCFQGSHVPFTFGSGTKLEIKRADAAPTVS",non-selective accumulation or retention in healthy tissues,[1]; doses from 0.5 mg/kg to 10 mg/kg i.p.,does not exhibit non-selective accumulation or retention in healthy tissues; also recorded: No non-specific retention
same,detectability in organs after 7 days,"[1]; doses from 0.5 mg/kg to 10 mg/kg i.p., even at the highest dose",virtually undetectable in all organs after 7 days; also recorded: largely undetectable after 7 days
same,antibody-associated fluorescence in brain,[1]; single dose 0.5 mg/kg i.p.,no fluorescence was detected in brain
same,tissues with antibody-associated fluorescence,[1]; single dose 0.5 mg/kg i.p.,"observed in intestine, reproductive organs, liver, kidney, spleen, lung and heart"
same,specific accumulation / non-specific retention in healthy tissues vs isotype control,"[1]; single dose 0.5 mg/kg i.p., 7 day period, 0.5 mg/kg",no specific accumulation; also recorded: no non-specific retention
same,clearance from organs by day 7,"[1]; single dose 0.5 mg/kg i.p., 0.5 mg/kg",largely cleared from all organs; also recorded: almost undetectable after 7 days
same,cross-reactivity with protein antigens on arrays,[2],did not react with any of the proteins present on the arrays tested; also recorded: No cross-reactivity was evident
same,cross-reactivity with protein antigens on arrays,[2]; listed as mAB AN-17,"did not react with any of the antigens present on the array, including several related keratin proteins"
same,"wound closure / migration, BT16",[3],failed to close the wound; also recorded: impaired
same,"wound closure / migration, NCI-H1573",[4],failed to close the wound; also recorded: impaired
same,"wound closure / migration, MDA-MB-468",[5],failed to close the wound; also recorded: impaired
same,enhancement of the toxicity of cisplatin,[6]; cisplatin at sub-lethal doses,significantly enhanced the toxicity of cisplatin
same,increase in sensitivity of cells to standard platinum chemotherapy,[6]; in vitro,at least 10 fold
same,cell viability or proliferation,[6]; mAb AN-17 alone (1 ug/ml),had no effect on cell viability or proliferation
same,detection of KRT14+ cells by flow cytometry compared to Sigma SAB4501657,KRT14+ cells,comparable sensitivity
